Test results published in patent EP4431526A1 (Emfret Analytics GmbH & Co. KG, dated 2024).
Positions count from the first letter of the chain named. Ends that are not written are not given here.

T1: human GPVI-Fc fusion protein (human, UniProt Q9HCN6 21-267, limits assumed)
T1 construct: also called human GPVI protein antigen
T1 sequence (looked up): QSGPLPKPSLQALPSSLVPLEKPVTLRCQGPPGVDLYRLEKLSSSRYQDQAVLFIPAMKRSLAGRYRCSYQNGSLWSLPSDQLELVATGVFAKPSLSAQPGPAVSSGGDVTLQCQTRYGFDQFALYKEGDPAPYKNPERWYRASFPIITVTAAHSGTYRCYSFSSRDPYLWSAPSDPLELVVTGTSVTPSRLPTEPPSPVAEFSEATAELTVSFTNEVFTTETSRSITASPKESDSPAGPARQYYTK

T2: GPVI peptide 201V-E215 (human, not fully specified)
T2 construct: On the array as peptide-cellulose conjugate; as soluble (cleavable, Fmoc-rink-amide linker) peptide in the neutralisation; also called Val201 to Glu215
T2 peptide: VVTGTSVTPSRLPTE

T3: GPVI peptide 246S-P260 (human, not fully specified)
T3 construct: On the array as peptide-cellulose conjugate; as soluble (cleavable, Fmoc-rink-amide linker) peptide in the neutralisation; also called Ser246 to Pro260
T3 peptide: SITASPKESDSPAGP

B1: Emf6.1^Fab (Fab, V domains shown)
VH: QVQLKESGPGLVQPSQSLSITCTVSGFSLTSYGVTWVRQPPGKGLEWLGVIWGDGSTNYHSGLRSRLSISRDDSKSQVFLKLNSLQTDDTATYYCAKPIYYDFDDDAMDYWGQGTSVTVSS
VL: DIVMTQSQKFMSTSVGDRVSVTCKASQNVGTYVAWFQQKPGQSPKTLIYSASYRCSGVPDRFTGSGSGTDFTLTISNVQSDDLAEYFCHQYNNYPLTFGAGTKLELR
notes: also called Fab fragments of Emf6.1
B2: Emf6.1 IgG (mouse IgG2a kappa) (antibody, V domains shown)
VH: B1 VH
VL: B1 VL
notes: Mouse monoclonal IgG2a kappa from hybridoma (subclone of Emf6)
B3: HC5 LC1 humanized Fab (Fab, V domains shown)
VH: QVQLQESGPGLVKPSETLSLTCTVSGFSLTSYGVTWIRQPPGKGLEWIGVIWGDGSTNYHSGLRSRVTISVDTSKNQFSLKLSSVTAADTAVYYCAKPIYYDFDDDAMDYWGQGTSVTVSS
VL: EIVLTQSPSSLSASVGDRVTITCKASQNVGTYVAWFQQKPGKAPKSLIYSASYRCSGVPSKFSGSGSGTDFTLTISSLQPEDFATYYCHQYNNYPLTFGQGTKLEIKR
notes: also called VH5:VL1
B4: HC1 LC1 humanized Fab (Fab, V domains shown)
VH: B3 VH with V24A, N76S, S116L
VL: B3 VL
notes: Monovalent 50 kDa Fab from CHO; also called VH1:VL1
B5: HC2 LC1 humanized Fab (Fab, V domains shown)
VH: B3 VH with Q1E, Q5V, S116L
VL: B3 VL
notes: also called VH2:VL1
B6: HC2 LC2 humanized Fab (Fab, V domains shown)
VH: B3 VH with Q1E, Q5V, S116L
VL: B3 VL with E1D, V3Q, L4M, K39R, S76N, L104V
notes: also called VH2:VL2; EMF602
B7: HC5 LC2 humanized Fab (Fab, V domains shown)
VH: B3 VH
VL: B3 VL with E1D, V3Q, L4M, K39R, S76N, L104V
notes: also called VH5:VL2
B8: HC5 LC3 humanized Fab (Fab, V domains shown)
VH: B3 VH
VL: B3 VL with E1D, V3Q, S10T, F36Y, S46L, K61R, D70E, E81D, A84T, L104V
notes: also called VH5:VL3
B9: HC0 LC0 chimeric Fab fragment (Fab, V domains shown)
VH: B1 VH
VL: DIVMTQSQKFMSTSVGDRVSVTCKASQNVGTYVAWFQQKPGQSPKTLIYSASYRCSGVPDRFTGSGSGTDFTLTISNVQSDDLAEYFCHQYNNYPLTFGAGTKLELRR
notes: Murine variable domains with human Ig constant domains, expressed in CHO; also called HC0 LCD; chimeric control antibody
B10: HC5 LC4 humanized Fab (Fab, V domains shown)
VH: B3 VH
VL: DIVMTQSPATLSLSPGDRATLSCKASQNVGTYVAWYQQKPGQAPRLLIYSASYRCSGIPARFSGSGSGTDFTLTISSLQSEDFAVYYCHQYNNYPLTFGGGTKVEIKR
notes: also called VH5:VL4
B11: HC1 LC4 humanized Fab (Fab, V domains shown)
VH: B3 VH with V24A, N76S, S116L
VL: B10 VL
notes: also called VH1:VL4
B12: HC2 LC4 humanized Fab (Fab, V domains shown)
VH: B3 VH with Q1E, Q5V, S116L
VL: B10 VL
notes: also called VH2:VL4
B13: HC1 LC3 humanized Fab (Fab, V domains shown)
VH: B3 VH with V24A, N76S, S116L
VL: B3 VL with E1D, V3Q, S10T, F36Y, S46L, K61R, D70E, E81D, A84T, L104V
notes: also called VH1:VL3
B14: HC2 LC3 humanized Fab (Fab, V domains shown)
VH: B3 VH with Q1E, Q5V, S116L
VL: B3 VL with E1D, V3Q, S10T, F36Y, S46L, K61R, D70E, E81D, A84T, L104V
notes: also called VH2:VL3
B15: HC3 LC1 humanized Fab (Fab, V domains shown)
VH: QVQLVESGGGVVQPGRSLRLSCVASGFSLTSYGVTWVRQAPGKGLEWVAVIWGDGSTNYHSGLRSRFTISRDNSKNTMFLQMNSLRADDTAVYYCAKPIYYDFDDDAMDYWGQGTLVTVSS
VL: B3 VL
notes: also called VH3:VL1
B16: HC3 LC2 humanized Fab (Fab, V domains shown)
VH: B15 VH
VL: B3 VL with E1D, V3Q, L4M, K39R, S76N, L104V
notes: also called VH3:VL2
B17: HC3 LC3 humanized Fab (Fab, V domains shown)
VH: B15 VH
VL: B3 VL with E1D, V3Q, S10T, F36Y, S46L, K61R, D70E, E81D, A84T, L104V
notes: also called VH3:VL3
B18: HC4 LC1 humanized Fab (Fab, V domains shown)
VH: B15 VH with V23A, A40S, F67L, M78L, F79Y, Q81E, A87T, D88E, V92T, L116K
VL: B3 VL
notes: also called VH4:VL1
B19: HC3 LC4 humanized Fab (Fab, V domains shown)
VH: B15 VH
VL: B10 VL
notes: also called VH3:VL4
B20: HC4 LC4 humanized Fab (Fab, V domains shown)
VH: B15 VH with V23A, A40S, F67L, M78L, F79Y, Q81E, A87T, D88E, V92T, L116K
VL: B10 VL
notes: also called VH4:VL4
B21: HC4 LC2 humanized Fab (Fab, V domains shown)
VH: B15 VH with V23A, A40S, F67L, M78L, F79Y, Q81E, A87T, D88E, V92T, L116K
VL: B3 VL with E1D, V3Q, L4M, K39R, S76N, L104V
notes: also called VH4:VL2
B22: HC4 LC3 humanized Fab (Fab, V domains shown)
VH: B15 VH with V23A, A40S, F67L, M78L, F79Y, Q81E, A87T, D88E, V92T, L116K
VL: B3 VL with E1D, V3Q, S10T, F36Y, S46L, K61R, D70E, E81D, A84T, L104V
notes: also called VH4:VL3

Molecular target: human GPVI, membrane expressed on platelets (human) (UniProt Q9HCN6)
Test: flow cytometry ex vivo, hGP6^tg/tg platelets, competition with Emf3-FITC, 72 h after 4 mg/kg i.v.

| Binder | % of the binding epitopes on GPVI occupied [%] |
| --- | --- |
| B1 | 36 |

Molecular target: human GPVI, membrane expressed on platelets (human) (UniProt Q9HCN6)
Test: flow cytometry ex vivo, hGP6^tg/tg platelets, competition with Emf3-FITC, 24 h after 4 mg/kg i.v.

| Binder | % of the binding epitopes on GPVI occupied [%] |
| --- | --- |
| B1 | 76 |

Molecular target: human GPVI, membrane expressed on platelets (human) (UniProt Q9HCN6)
Test: flow cytometry ex vivo, hGP6^tg/tg platelets, 72 h after 4 mg/kg i.v.

| Binder | receptor occupancy [%] |
| --- | --- |
| B1 | > 35 |

Molecular target: human GPVI, membrane expressed on platelets (human) (UniProt Q9HCN6)
Test: flow cytometry ex vivo, hGP6^tg/tg platelets, competition with Emf3-FITC, 96 h after 4 mg/kg i.v.

| Binder | % of the binding epitopes on GPVI occupied [%] |
| --- | --- |
| B1 | 19 |

Molecular target: human GPVI, membrane expressed on platelets (human) (UniProt Q9HCN6)
Test: cell-based or functional assay

| Binder | thrombus volume on collagen under flow (1000 s^-1), human blood [% reduction] |
| --- | --- |
| B1 | 75 |

Molecular target: human GPVI, membrane expressed on platelets (human) (UniProt Q9HCN6)
Test: flow cytometry ex vivo, hGP6^tg/tg platelets, competition with Emf3-FITC, 1 h after 4 mg/kg i.v.

| Binder | % of the binding epitopes on GPVI occupied [%] |
| --- | --- |
| B1 | 90 |

Molecular target: human GPVI, membrane expressed on platelets (human) (UniProt Q9HCN6)
Test: flow cytometry ex vivo, hGP6^tg/tg platelets, competition with Emf3-FITC, 48 h after 4 mg/kg i.v.

| Binder | % of the binding epitopes on GPVI occupied [%] |
| --- | --- |
| B1 | 50 |

Molecular target: T1, human GPVI-Fc fusion protein
Test: method not stated at this place (BLI elsewhere); target printed as 'human GPVI'

| Binder | Kd [nM] |
| --- | --- |
| B1 | 0.46 |

Molecular target: human GPVI, membrane expressed on platelets (human) (UniProt Q9HCN6)
Test: flow cytometry ex vivo, hGP6^tg/tg platelets, 48 h after 4 mg/kg i.v.

| Binder | receptor occupancy [%] |
| --- | --- |
| B1 | > 50 |

Molecular target: human GPVI, membrane expressed on platelets (human) (UniProt Q9HCN6)
Test: flow cytometry ex vivo, hGP6^tg/tg platelets, competition with Emf3-FITC, 120 h after 4 mg/kg i.v.

| Binder | % of the binding epitopes on GPVI occupied [%] |
| --- | --- |
| B1 | 13 |

Molecular target: T2, GPVI peptide 201V-E215
Test: peptide microarray, HRP anti-mouse IgG

| Binder | binding result |
| --- | --- |
| B2 | binds |

Molecular target: T3, GPVI peptide 246S-P260
Test: peptide microarray, HRP anti-mouse IgG

| Binder | binding result |
| --- | --- |
| B2 | binds |

Molecular target: T1, human GPVI-Fc fusion protein
Test: BLI (Octet), GPVI-Fc on biosensor, 1:1 fit

| Binder | Kd [nM] | koff [s⁻¹] | kon [M⁻¹ s⁻¹] |
| --- | --- | --- | --- |
| B3 | 0.333 | 0.000261 | 782000 |
| B4 | 0.413 | 0.000332 | 804000 |
| B5 | 0.269 | 0.000189 | 703000 |
| B6 | 0.175 | 0.000162 | 931000 |
| B7 | 0.367 | 0.00024 | 655000 |
| B8 | 0.637 | 0.000437 | 686000 |
| B9 | 0.427 | 0.000212 | 496000 |
| B10 | 0.554 | 0.000319 | 576000 |
| B11 | 0.496 | 0.000333 | 671000 |
| B12 | 0.693 | 0.0011 | 1.59e+06 |
| B13 | 0.284 | 0.000221 | 777000 |
| B14 | 0.25 | 0.000144 | 576000 |
| B15 | 0.353 | 0.000587 | 1.66e+06 |
| B16 | 0.215 | 0.000362 | 1.68e+06 |
| B17 | 0.299 | 0.000561 | 1.87e+06 |
| B18 | 0.425 | 0.000339 | 797000 |
| B19 | 0.431 | 0.000618 | 1.43e+06 |
| B20 | 0.572 | 0.000412 | 720000 |
| B21 | 0.395 | 0.000508 | 1.29e+06 |
| B22 | 0.593 | 0.000655 | 1.1e+06 |
